This is an account of results in patent US20130289246A1 (VANDERBILT UNIVERSITY, published 2013).

Where two headings read alike, the source gives them in different places.

The Kd is the free concentration of one partner at which half of the binding sites on the other are occupied at equilibrium, for simple one-to-one binding. One may read the koff as the rate constant with which the complex falls apart. In general, kon refers to the second-order rate constant of association.

Assay [1] deals with T1, HA of A/California/04/2009 (H1N1) virus (Influenza A virus (H1N1)). The assay can be described thus: cell-based or functional assay.
In assay [2] the target is HA of A/Vietnam/1203/2004 (H5N1) virus (Influenza A virus (H5N1)). The assay can be described thus: cell-based or functional assay.
Assay [3] concerns the target HA of A/Alabama/1/1981 (H3N2) virus (Influenza A virus (H3N2)). The assay can be described thus: cell-based or functional assay.
Assay [4] has as its target HA of A/Hong Kong/1/1968 (H3N2) virus (Influenza A virus (H3N2), UniProt Q91MA7 17-566). The assay can be described thus: cell-based or functional assay.
The target of assay [5] is T2, recombinant soluble trimeric 1918 H1 HA (A/South Carolina/1/1918, wild type) (Influenza A virus A/South …, UniProt Q9WFX3 18-529). The assay can be described thus: ELISA, supernate. In general terms: An ELISA detects its analyte on a solid surface through an enzyme-linked reagent.
The target of assay [6] is T3, recombinant soluble 1968 H3 HA (A/Aichi/2/1968) (Influenza A virus A/Aichi/2/1968 (H3N2), UniProt P03437 17-530). The assay can be described thus: ELISA, supernate.
In assay [7] the target is T1, HA of A/California/04/2009 (H1N1) virus. Nature of the assay: cell-based or functional assay. The source holds these as a separate data set.
Assay [8] addresses HA of A/swine/Iowa/15/1930 (H1N1) virus (Influenza A virus (H1N1)). The assay can be described thus: cell-based or functional assay.
The target of assay [9] is HA of A/L3/1947 (H1N1) virus (Influenza A virus (H1N1)). Nature of the assay: cell-based or functional assay.
Assay [10] has as its target HA of A/Weiss/1943 (H1N1) virus (Influenza A virus (H1N1)). Nature of the assay: cell-based or functional assay.
The target in assay [11] is HA of A/Brisbane/59/2007 (H1N1) virus (Influenza A virus (H1N1)). Nature of the assay: cell-based or functional assay.
The target in assay [12] is HA of A/New Jersey/11/1976 (H1N1) virus (Influenza A virus (H1N1)). The assay can be described thus: cell-based or functional assay.
In assay [13] the target is HA of A/New Caledonia/20/1999 (H1N1) virus (Influenza A virus (H1N1)). The assay can be described thus: cell-based or functional assay.
For assay [14], the target named is HA of A/USSR/92/1977 (H1N1) virus (Influenza A virus (H1N1)). The assay can be described thus: cell-based or functional assay.
The target of assay [15] is HA of A/South Carolina/1/1918 (H1N1), wild type, on VLP (Influenza A virus A/South …, UniProt Q9WFX3 18-566). Nature of the assay: cell-based or functional assay.
Assay [16] addresses T3, recombinant soluble 1968 H3 HA …. The assay can be described thus: ELISA, unconcentrated supernate.
The target in assay [17] is T2, recombinant soluble trimeric 1918 H1 HA …. The assay can be described thus: ELISA, supernate. This is another data set of the same source.
The target in assay [18] is T3, recombinant soluble 1968 H3 HA …. Nature of the assay: ELISA, supernate. The source holds these as a separate data set.
Assay [19] deals with HA of A/Rockville Illinois/5/1957 (H2N2) virus (Influenza A virus (H2N2)). The assay can be described thus: cell-based or functional assay.
Assay [20] concerns the target HA of A/Albany/6/1958 (H2N2) virus (Influenza A virus (H2N2)). Nature of the assay: cell-based or functional assay.
In assay [21] the target is HA of A/Japan/305/1957 (H2N2) virus (Influenza A virus (H2N2), UniProt P03451 16-562). Nature of the assay: cell-based or functional assay.
Assay [22] deals with HA of A/swine/Missouri/2124514/2006 (H2N3) virus (Influenza A virus (H2N3)). The assay can be described thus: cell-based or functional assay.
In assay [23] the target is HA of A/Ann Arbor/23/1957 (H2N2) virus (Influenza A virus (H2N2)). Nature of the assay: cell-based or functional assay.
The target of assay [24] is HA of A/Netherlands/65/1963 (H2N2) virus (Influenza A virus (H2N2)). Nature of the assay: cell-based or functional assay.
Assay [25] deals with HA of A/Ann Arbor/7/1967 (H2N2) virus (Influenza A virus (H2N2)). The assay can be described thus: cell-based or functional assay.
In assay [26] the target is T2, recombinant soluble trimeric 1918 H1 HA …. Nature of the assay: biolayer interferometry (Octet Red), His-tagged HA on anti-Penta-HIS tips.

B1: mAb 11J19 (antibody, V domains shown)
VH: EVQLQESGPGLVKPSETLSLSCTVSGGSITRSSYYWGWIRQPPGKGLEWIGNIYYSGTTYYNPSLKSRVTISVDTSKNQFSLKLSSVTAADTAVYYCARLYGSGLDYWGQGTLVTVS
VL: DIQLTQSPSFLSASVGDRVTITCRASQGSSRYVAWYQQKPGKAPKLLILAASTLHTGVPSRFSGSGSGTEFTLTISSLQPEDFATYSCQQLNGFLLTFGGGTKVEIKR
As for B1, the HAI activity is greater than 20 µg/mL in assay [1], greater than 20 µg/mL in assay [2], greater than 20 µg/mL in assay [3] and 2.5 µg/mL in assay [4]. The values for the OD in assay [5] and in assay [6] were 0.079 OD and 0.895 OD, respectively.

B2: mAb 2O10 (antibody, V domains shown)
VH: EVQLVESGGGLVQPGGSLRLSCAASGFTFNSYWMTWVRQAPGKGLEWVANINQDGSEKFFVDSVKGRFTISRDNAKTSLYLQMNSLRVEDTAVYYCAREGAPYDTYYYYYAMDVWGQGTTVTVS
VL: QSVLTQPPSVSGAPGQRVTISCTGTSSNIGAGYGVHWYQQLPGAAPKLLVYGNSNRPSGVPDRFSGSKSGTSASLAITGLQAEDEADYYCQSYDISLSGSNVFGTGTKVTVLG
As to B2, the HAI activity in assay [7] is 0.32 µg/mL; in assay [8], 0.08 µg/mL; in assay [9], greater than 20 µg/mL; in assay [10] it was greater than 20 µg/mL; in [11], greater than 20 µg/mL; in assay [12] it was 2.5 µg/mL. The HAI activity in assay [13] is greater than 20 µg/mL; in assay [14] it was 2.5 µg/mL; in [15], 0.04 µg/mL. Also, the binding result in assay [16] is reported as “no binding”. Moreover, the OD in assay [17] worked out at 0.308 OD; in assay [18] it was 0.077 OD.

B3: mAb 2K11 (antibody, V domains shown)
VH: EVQLVESGGGLVQPGGSLRLSCVASTFSLINYWMTWVRQAPGKGLEWVANIKQDGFEKYYVDSVKGRFTISRDNAKNSLYLQMNSLRVEDTAVYYCARQGSYADTYFYHYGMDVWGQGTTVTVS
VL: QSALTQPPSVSGAPGQRVTISCTGSSSNIGAGYDAYWYQQLPGTAPKLLIYGNSNRLSGVPDRFSASKSGTSASLAITGLQAEDEADYYCQSYDSSLSIFGGGTKLTVLR
As to B3, the HAI activity in [7] was 0.63 µg/mL; in [8] it was 0.16 µg/mL; in [9], greater than 20 µg/mL; in assay [10] it was greater than 20 µg/mL; in assay [11] it was greater than 20 µg/mL; in assay [12], 1.3 µg/mL. Moreover, the values for the HAI activity in assay [13], in assay [14] and in assay [15] were greater than 20 µg/mL, 0.32 µg/mL and 0.16 µg/mL, respectively. Further, in [16], the binding result is “no binding”. For the same molecule, the values for the OD in assay [17] and in assay [18] were 0.311 OD and 0.08 OD, respectively.

B4: mAb 25J3 (antibody, V domains shown)
VH: QVQLQESGPGLVRPSETLSLTCNVSGDSINDYYWSWIRQPPGKGLEWIGYIYYSGSTNYNPSLNSRVTISVEMSKNQFSLILNSVTAADTAVYYCARVDYDSGGSFDPWGQGTLVTVS
VL: QSVLTQPPSVSGAPGQRVTISCTGSSSNIGAGYDVHWYQQLPGTAPKLLIYGNSNRPSGVPDRFSGSKSGTSASLAITGLQAEDEADFYCQSYDSRLSGYVFGTGTKVTVLG
For the molecule B4, the OD was 0.07 OD in assay [5] and 0.623 OD in [6].

B5: mAb 4A10 (antibody, V domains shown)
VH: EVQLVESGGGLVQPGGSLRLSCAASGFSFSSYWMTWVRQAPGKGLEWVANIKQYGSEKYYVDSVKGRFTISRDNAKNSLYLQMNSLRDDDTAVYYCARMGSYLDTYYYHYGMDVWGQGTTVTVS
VL: QSVLTQPPSLSGAPGQRVTISCTGSSSNIGADYDVYWYQHLPGTAPKLLMYGDGYRPSGVPDRFSGSKSGTSASLAITGLQAEDEADYYCQSYDSSLSRRVVFGGGTKLTVLG
B5: the HAI activity in assay [7] is 0.16 µg/mL; in assay [8], 0.63 µg/mL; in [9] it was greater than 20 µg/mL; in assay [10], greater than 20 µg/mL; in assay [11] it was greater than 20 µg/mL; in assay [12], 2.5 µg/mL. The HAI activity in assay [13] is greater than 20 µg/mL; in assay [14], 0.32 µg/mL; in [15] it was 0.08 µg/mL. The binding result in assay [16] is recorded as “no binding”. Also, the OD in assay [17] turned out to be 0.725 OD; in assay [18], 0.072 OD.

B6: mAb 8F8 (antibody, V domains shown)
VH: EVQLLESGGGVVQPGRSLRLSCAASGFMFSSYVMHWVRQPPGKGLEWVAVIWYDGSKTYFADSMRGRLTVSRDNSKNALYLQMNRLRAEDTAVYYCARQQDSGYSGPEVSYYSHYGMDVWGQGTTVIVS
VL: QSVLTQSPSASGTPGRAITISCSGSSSNIGSNPVNWYQQLPGAAPKLLIYADEHRPSGVPDRFSGPKSGTSASLAISGLQSEDEADYYCAAWDDSLSGPAVVFGGGTKLTVLG
For the molecule B6, the HAI activity was greater than 20 µg/mL in assay [1]; greater than 20 µg/mL in assay [2]; 0.4 µg/mL in [19]; 0.32 µg/mL in assay [20]; greater than 20 µg/mL in assay [4]; 0.4 µg/mL in [21]. Also, the HAI activity was 0.63 µg/mL in assay [22], 0.1 µg/mL in assay [23], 0.1 µg/mL in assay [24] and greater than 20 µg/mL in assay [25]. Also, the OD in assay [5] was 0.07 OD; in assay [6], 0.079 OD.

B7: mAb 18G6 (antibody, V domains shown)
VH: QVQLKESGPGLVKPSETLSLTCTVSGGSISSSNYNWGWIRQPPGKGLEWIGSVYYSGSTYFNPSLKSRVTISVDTSKNQFSLKLTSVTAADTAVYYCARLIAFYYDTNGYTWGQGTLVTVS
VL: NSIMTQSPFTLSASVGDKVTITCRASQSISPWLAWYQQKPGKAPKLLIYKASSLETGVPSRFSGSESGTEFTLTISGLQPDDFATYYCQQYSSFARTFGQGTKVEIKR
Regarding B7, the OD was 0.075 OD in assay [5] and 0.073 OD in assay [6].

B8: mAb 7A13 (antibody, V domains shown)
VH: QVQLQESAPGLVKPSGTLSLTCAVSGASLSSSDWWTWVRQPPGKGLEWIGEIHHGGSTNSNPSLQSRVTISIDKSKKQFSLKLTSVTVADTAVYYCARAPGADAGPYSENIHHWGQGTLVTVS
VL: QLVLTQSPSASASLGASVKLTCTLSSRHSDYAIGWHQQQPGKGPRYLMKLNPDGSHTKGDGIPDRFSGSSSGAERYLTISNLLSEDEADYYCQTWGTGIQVFGGGTRLTVIS
As for B8, the HAI activity is greater than 20 µg/mL in assay [1], greater than 20 µg/mL in [2], greater than 20 µg/mL in assay [3] and 0.7 µg/mL in assay [4]. For the same molecule, the OD is 0.076 OD in assay [5] and 0.265 OD in [6].

B9: 5J8 Fab (Fab, V domains shown)
VH: EVQLVESGPGLVKPSDILSLTCAVSGYSISSNYYWGWIRQPPGKGLEWIGSIYHSGSTYYKPSLESRLGISVDTSKNQFSLKLSFVSAADTAVYYCARHVRSGYPDTAYYFDKWGQGTLVTVS
VL: SYVLTQPPSVSVAPGETARISCGGNNIGTKVLHWYQQTPGQAPVLVVYDDSDRPSGIPERFSGSNSGNTATLTISRVEVGDEADYYCQVWDISTDQAVFGGGTKLTVLG
As to B9, in [26], the dissociation constant Kd worked out at 190 nM, the off-rate (koff) was 0.036 s⁻¹ and the kon is 200000 M⁻¹ s⁻¹.
